doi:10.1101/2022.08.19.504472

Columns and labels:
[1] = target: FITC-labeled RLAAK peptide; assay: fluorescence polarisation
[2] = target: FITC-labeled RDAAK peptide; assay: fluorescence polarisation

Substance | Kd [1] [µM] | Kd [2] [µM]
His-MBP-OsPRT6-UBR 136H mutant (domain or fragment) | 58.9 | –
His-MBP-OsPRT6-UBR 161V mutant (domain or fragment) | 41.4 | –
His-MBP-OsPRT6-UBR 136H+161V double mutant (domain or fragment) | 709 | –
His-MBP-OsPRT6-UBR wild type (domain or fragment) | 25.8 | 137
